Data: patent publication US20200325187A1 (Genentech, published 2020)
Positions count from the first letter of the chain named. Where two headings read alike, the source gives them in different places.

Legend:
hVEGF-A Q89A = target: T1, hVEGF-A Q89A (human, UniProt P15692-4 34-135, Q89A); assay: SPR
T1 construct: position probably counted on the mature protein
T1 sequence (looked up): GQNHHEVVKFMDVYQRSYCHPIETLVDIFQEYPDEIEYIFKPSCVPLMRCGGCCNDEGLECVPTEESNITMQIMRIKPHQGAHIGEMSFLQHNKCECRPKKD
Protocol: (§1) Depending on the format of the assay either a streptavidin sensor (SA) or a dextran-coated (CM5) sensor was utilized as described below.
(§2) Reaction was then quenched by addition of 10 molar excess of Glycine pH 8.0 and the sample was buffer exchanged into PBS using an Amicon 0.5 mL 3000 MWCO ultra-centrifugal filters (EMD Millipore). The biotinylation state of the protein was verified by LC-MS analysis. Biotinylated VEGF-A was then captured on the surface until a resonance unit (RU) signal of about ˜400. For immobilization of VEGF-A on CM5 sensor, the surface was first activated with a mixture of N-ethyl-N′-(3-dimethylaminopropyl)carbodiimide hydrochloride and N-hydroxysuccinimide (EDC/NHS) according to the supplier instructions. VEGF-A was then diluted into coupling buffer (0.1 M Acetate Buffer, pH 5.0) and injected until the signal reached about ˜400 RU followed by a wash with 1 M ethanolamine pH 8.0 to quench remaining activated sites.

hVEGF-A K48A = target: T2, hVEGF-A K48A (human, UniProt P15692-4 34-135, K48A); assay: SPR
T2 construct: position probably counted on the mature protein
T2 sequence (looked up): T1 sequence (looked up) with K41A, A82Q
Protocol: as §1, §2

hVEGF-A Y21A = target: T3, hVEGF-A Y21A (human, UniProt P15692-4 34-135, Y21A); assay: SPR
T3 construct: position probably counted on the mature protein
T3 sequence (looked up): T1 sequence (looked up) with Y14A, A82Q
Protocol: as §1, §2

hVEGF-A [1] = target: T4, hVEGF-A (human, UniProt P15692-4 27-191, limits assumed); assay: SPR
T4 construct: also called human VEGF-A; WT
Protocol: as §1, §2

hVEGF-A (8-109) [2] = target: T5, hVEGF-A (8-109) (human, UniProt P15692 214-315); assay: competition ELISA: VEGF-A (8-109) coated, constant Flt-1 receptor, peptide titrated; blocked ligand: Flt-1
T5 sequence (looked up): T1 sequence (looked up) with A82Q
Protocol: Binding specificity of each peptide was established by competition ELISA. […] After blocking with block buffer (PBS with 0.5% BSA and 0.05% TWEEN®20) for 2 hours at room temperature, the receptor-Fc fusions or biotinylated receptors were serially diluted using assay buffer (PBS with 0.5% BSA and 0.05% TWEEN®20) and incubated for 1 hour at room temperature. […] Competition ELISA was conducted in an identical fashion as described above except after blocking, a mixture of serially diluted peptide containing a constant concentration of receptor-Fc fusion or biotinylated receptor (concentration of receptor was set to EC₆₀) was added and incubated for 1 hour. All recombinant human proteins and antibodies were purchased from R &D Systems (Minneapolis, Minn.).

hVEGF-A [3] = target: T4, hVEGF-A; assay: SPR; remark: listed apart in the source
Protocol: as §1, §2

hVEGF-A (8-109) [4] = target: T5, hVEGF-A (8-109); assay: SPR
Protocol: as §1, §2

human VEGF-A 165 = human VEGF-A 165 (human, UniProt P15692-4 27-191); assay: SPR
Chain of human VEGF-A 165 (P15692 other isoform, or with tags, fused parts or gaps limits assumed): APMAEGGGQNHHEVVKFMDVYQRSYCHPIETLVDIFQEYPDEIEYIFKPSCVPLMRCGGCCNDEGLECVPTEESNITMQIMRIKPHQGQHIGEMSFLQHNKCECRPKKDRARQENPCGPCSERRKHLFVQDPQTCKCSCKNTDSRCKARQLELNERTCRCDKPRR
Protocol: as §1, §2

rat VEGF-A = target: T6, rat VEGF-A (rat, UniProt P16612-2 27-190, limits assumed); assay: SPR
T6 construct: also called rVEGF
T6 sequence (looked up): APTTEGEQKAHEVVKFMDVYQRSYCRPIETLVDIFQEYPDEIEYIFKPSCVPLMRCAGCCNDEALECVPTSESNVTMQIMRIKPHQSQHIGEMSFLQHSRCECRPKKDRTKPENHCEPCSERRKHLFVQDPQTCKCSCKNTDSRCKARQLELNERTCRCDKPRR
Protocol: as §1, §2

mouse VEGF-A 164 = target: T7, mouse VEGF-A 164 (mouse, UniProt Q00731-2 27-190); assay: SPR
T7 construct: also called mouse 164
T7 sequence (looked up): T6 sequence (looked up) with A10S, V14I, V75I
Protocol: as §1, §2

rabbit VEGF-A = target: T8, rabbit VEGF-A (rabbit, UniProt G1T1L9 1-398); assay: SPR
T8 sequence: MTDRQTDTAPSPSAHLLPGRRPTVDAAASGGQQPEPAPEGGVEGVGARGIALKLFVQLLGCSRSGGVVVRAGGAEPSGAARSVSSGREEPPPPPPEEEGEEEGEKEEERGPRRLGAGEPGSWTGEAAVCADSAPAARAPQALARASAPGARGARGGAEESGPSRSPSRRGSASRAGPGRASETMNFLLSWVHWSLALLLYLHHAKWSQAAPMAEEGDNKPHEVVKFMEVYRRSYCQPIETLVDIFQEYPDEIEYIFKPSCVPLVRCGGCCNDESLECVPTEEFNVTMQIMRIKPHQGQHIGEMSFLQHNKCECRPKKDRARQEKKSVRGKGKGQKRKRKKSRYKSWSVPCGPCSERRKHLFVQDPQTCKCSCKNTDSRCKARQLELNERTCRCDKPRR
Protocol: as §1, §2

VEGF-B = target: T9, VEGF-B (human, UniProt P49765-2 22-188, limits assumed); assay: competition ELISA: VEGF-B coated, constant Flt-1 receptor, peptide titrated
T9 sequence (looked up): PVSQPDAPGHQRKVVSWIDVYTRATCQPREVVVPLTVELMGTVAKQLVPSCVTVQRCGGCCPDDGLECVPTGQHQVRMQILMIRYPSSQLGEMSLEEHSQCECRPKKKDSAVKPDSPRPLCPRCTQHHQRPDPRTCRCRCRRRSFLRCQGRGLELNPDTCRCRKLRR

hVEGF-A [5] = target: T4, hVEGF-A; assay: cell-based or functional assay

Binder: GCNIMLPFWGCGRDFECLAGCVCQYYQSCG (designed binder) [VEGF_CKP9.54.90]
- Kd (hVEGF-A Q89A): 8.8 nM
- Kd (hVEGF-A K48A): 0.19 nM
- Kd (hVEGF-A Y21A): 3.5 nM
- Kd (hVEGF-A [1]): 0.37 nM
- IC50 (read off the curve) (hVEGF-A (8-109) [2]): ~0.07 µM
- Kd (hVEGF-A [3]): 0.4 nM
- Kd (hVEGF-A (8-109) [4]): 0.87 nM
- Kd (human VEGF-A 165): 0.89 nM
- Kd (rat VEGF-A): 0.9 nM
- Kd (mouse VEGF-A 164): 1.31 nM
- Kd (rabbit VEGF-A): 1.14 nM
- binding result (VEGF-B): no binding (tested: 5 µM)
- Cellular IC50 (hVEGF-A [5]): 1.35 nM
- FOLD [..] [..] TO VARIANT 9.54.90 (hVEGF-A [5]): 1 fold
